Assay results taken from FireProtDB (doi:10.1006/jmbi.1999.2732).

Settings: Homo sapiens, Thermal, DSC, Sodium phosphate 50 mM, reversible: no, whole UniProt chain shown

B1: Annexin A1 wild type, P04083 (protein)
chain: MAMVSEFLKQAWFIENEEQEYVQTVKSSKGGPGSAVSPYPTFNPSSDVAALHKAIMVKGVDEATIIDILTKRNNAQRQQIKAAYLQETGKPLDETLKKALTGHLEEVVLALLKTPAQFDADELRAAMKGLGTDEDTLIEILASRTNKEIRDINRVYREELKRDLAKDITSDTSGDFRNALLSLAKGDRSEDFGVNEDLADSDARALYEAGERRKGTDVNVFNTILTTRSYPQLRRVFQKYTKYSKHDMNKVLDLELKGDIEKCLTAIVKCATSKPAFFAEKLHQAMKGVGTRHKALIRIMVSRSEIDMNDIKAFYQKMYGISLCQAILDETKGDYEKILVALCGGN
pH 3.2
  Tm: 41.1 °C
  unfolding enthalpy (calorimetric): 102 kcal/mol
  unfolding enthalpy (van 't Hoff): 101 kcal/mol
pH 3.4
  Tm: 48.5 °C
  unfolding enthalpy (calorimetric): 139 kcal/mol
  unfolding enthalpy (van 't Hoff): 119 kcal/mol
pH 3.8
  Tm: 56.4 °C
  unfolding enthalpy (calorimetric): 152 kcal/mol
  unfolding enthalpy (van 't Hoff): 142 kcal/mol
pH 4.5
  Tm: 62.3 °C
  unfolding enthalpy (calorimetric): 192 kcal/mol
  unfolding enthalpy (van 't Hoff): 200 kcal/mol
pH 5
  Tm: 62.7 °C
  unfolding enthalpy (calorimetric): 203 kcal/mol
  unfolding enthalpy (van 't Hoff): 206 kcal/mol
pH 6
  Tm: 61.8 °C
  unfolding enthalpy (calorimetric): 197 kcal/mol
  unfolding enthalpy (van 't Hoff): 224 kcal/mol
pH 7
  Tm: 59.9 °C
  unfolding enthalpy (calorimetric): 200 kcal/mol
  unfolding enthalpy (van 't Hoff): 220 kcal/mol
pH 8
  Tm: 58.5 °C
  unfolding enthalpy (calorimetric): 197 kcal/mol
  unfolding enthalpy (van 't Hoff): 215 kcal/mol
